{"source": "patent US20250277200A1", "key": {"[1]": {"biological_target": "C5a (Homo sapiens (Human)) (UniProt P01031)", "sequence (P01031 678-751 limits assumed)": "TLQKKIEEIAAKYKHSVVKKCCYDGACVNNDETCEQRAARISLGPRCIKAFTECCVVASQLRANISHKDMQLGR", "test": "cell-based or functional assay"}, "[2]": {"biological_target": "C3a (Homo sapiens (Human)) (UniProt P01024)", "sequence (P01024 672-748 limits assumed)": "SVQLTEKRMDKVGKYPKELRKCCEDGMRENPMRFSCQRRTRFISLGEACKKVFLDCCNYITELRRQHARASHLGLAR", "test": "cell-based or functional assay"}}}
{"substance": "TAFI activation peptide-CPN1-HSA (enzyme)", "values": [{"measurement": "% Arg released (Arg LC-MS/MS, supernatant)", "setting": "[1]", "result": 14, "unit": "%"}, {"measurement": "% Arg released (Arg LC-MS/MS, supernatant)", "setting": "[2]", "result": 72, "unit": "%"}]}
